Test results reported in US20230099149A1 (INNATE PHARMA, published 2023).

T1: human Nectin-4 at the surface of SUM185 and SUM190 human breast cancer tumor cells (human, UniProt Q96NY8 32-510)
T1 sequence: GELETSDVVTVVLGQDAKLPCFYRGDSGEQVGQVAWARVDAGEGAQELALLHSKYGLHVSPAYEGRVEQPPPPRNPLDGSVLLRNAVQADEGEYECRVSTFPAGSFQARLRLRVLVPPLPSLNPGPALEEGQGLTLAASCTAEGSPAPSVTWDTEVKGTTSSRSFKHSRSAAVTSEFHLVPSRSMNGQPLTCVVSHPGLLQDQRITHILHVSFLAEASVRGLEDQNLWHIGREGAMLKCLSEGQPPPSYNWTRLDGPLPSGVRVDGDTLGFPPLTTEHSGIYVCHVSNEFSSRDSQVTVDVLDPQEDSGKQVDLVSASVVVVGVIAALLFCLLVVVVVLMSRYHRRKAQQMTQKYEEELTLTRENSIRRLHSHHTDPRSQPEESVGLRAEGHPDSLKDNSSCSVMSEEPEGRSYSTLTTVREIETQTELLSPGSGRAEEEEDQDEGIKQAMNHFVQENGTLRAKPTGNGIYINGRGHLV

T2: wild-type human Nectin-4 protein expressed on CHO cells (huNectin4 CI.3C8 cell line) (human, UniProt Q96NY8 32-510)
T2 construct: also called whole Nectin-4 protein; wild type Nectin-4
T2 sequence: T1 sequence

T3: modified Nectin-4 having the Ig-like C2 type 1 and the Ig-like C2 type 2 domains and lacking the Ig-like V … (human, UniProt Q96NY8 148-510)
T3 construct: also called C1C2 construct
T3 sequence: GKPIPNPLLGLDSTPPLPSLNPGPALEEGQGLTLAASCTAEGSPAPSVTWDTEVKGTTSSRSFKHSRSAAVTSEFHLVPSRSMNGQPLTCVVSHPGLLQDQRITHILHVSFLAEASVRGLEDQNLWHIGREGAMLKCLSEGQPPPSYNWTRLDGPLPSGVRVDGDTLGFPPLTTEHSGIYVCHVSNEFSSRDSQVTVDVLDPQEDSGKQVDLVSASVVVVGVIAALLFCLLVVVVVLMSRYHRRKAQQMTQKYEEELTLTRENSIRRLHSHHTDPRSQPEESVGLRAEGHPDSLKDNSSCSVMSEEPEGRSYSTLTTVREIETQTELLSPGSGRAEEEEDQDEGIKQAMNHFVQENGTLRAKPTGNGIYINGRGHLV

B1: N4 ADC1: anti-Nectin-4 antibody (VH and VL of SEQ ID NOS: 9 and 10, human IgG1) conjugated to a linker-camptothecin analogue (antibody, V domains shown)
VH: QVQLKQSGPGLVQPSQSLSITCTVSGFSLTNYGVHWVRQSPGKGLEWLGVIWSGGSTDYNAAFISRLSISKDTSKSQVFFKMNSLQADDTAIYYCARELIHAMDNWGQGTSVTVSS
VL: DIQMTQSPASLSVSVGETVTITCRASENIYSNLAWYQQKQGNSPQLLVFAATNLADGVPSRFSGSGSGTQYSLKINSLQSEDFGTYYCQHFWGTPTFGGGTKLEIK
modifications: linker-camptothecin analogue conjugated stochastically via cysteine residues after partial reduction of interchain disulfide; average drug:antibody ratio of about 8
B2: N4 ADC2: anti-Nectin-4 antibody (VH and VL of SEQ ID NOS: 9 and 10, human IgG1) conjugated to a SN-38 containing linker (antibody, V domains shown)
VH: B1 VH
VL: B1 VL
modifications: SN-38 containing linker conjugated via cysteine residues after partial reduction of interchain disulfide
B3: N41 (VH and VL of SEQ ID NOS: 9 and 10 as human IgG1 isotype) (antibody, V domains shown)
VH: B1 VH
VL: B1 VL
notes: also called mAbC
B4: enfortumab (VH and VL of SEQ ID NOS: 3 and 4 as human IgG1 isotype) (antibody, V domains shown)
VH: EVQLVESGGGLVQPGGSLRLSCAASGFTFSSYNMNWVRQAPGKGLEWVSYISSSSSTIYYADSVKGRFTISRDNAKNSLSLQMNSLRDEDTAVYYCARAYYYGMDVWGQGTTVTVSS
VL: DIQMTQSPSSVSASVGDRVTITCRASQGISGWLAWYQQKPGKAPKFLIYAASTLQSGVPSRFSGSGSGTDFTLTISSLQPEDFATYYCQQANSFPPTFGGGTKVEIKR
notes: also called mAbA; ASG-22ME

Legend:
[1] = target: T1, human Nectin-4 at the surface of SUM185 …; assay: cell-based or functional assay
[2] = target: T2, wild-type human Nectin-4 protein …; assay: flow cytometry on CHO cells expressing wild-type human Nectin-4
[3] = target: T3, modified Nectin-4 having the Ig-like C2 …; assay: flow cytometry on CHO cells expressing Nectin4-C1C2-V5

Row | Binder | IC50 of cell death, SUM185 cells, Cell Titer Glo viability at day 6 [1] | IC50 of cell death, SUM190 cells, Cell Titer Glo viability at day 6 [1] | binding result [2] | binding result [3]
1 | B1 | 0.05 nM | 0.1 nM |  | 
2 | B2 |  | 0.4 nM |  | 
3 | B3 |  |  | binds | no binding
4 | B4 |  |  |  | no binding
